According to the array DNA melting data of Ke et al.:

Assay: melting temperature; melt of duplexes
Conditions: sodium 0.0675 M; strand 1 µM

Row | Substance | Tm
1 | CGACGTGCTGGATGTGCTG+CAGCACATCCTGCACGTCG ((((((((.((((((((((+)))))))))).)))))))) | 61.2 °C
2 | CGACGTGCTGGATGTGCTG+CAGCACATCGAGCACGTCG (((((((((.(((((((((+))))))))).))))))))) | 59.3 °C
3 | CGACGTGCTGGATGTGCTG+CAGCACATCGCGCACGTCG ((((((((..(((((((((+)))))))))..)))))))) | 54.8 °C
4 | CGACGTGCTGGATGTGCTG+CAGCACATCGTGCACGTCG ((((((((..(((((((((+)))))))))..)))))))) | 53.2 °C
5 | CGACGTGCTGGATGTGCTG+CAGCACATGAGGCACGTCG ((((((((...((((((((+))))))))...)))))))) | 54 °C
6 | CGACGTGCTGGATGTGCTG+CAGCACATGATGCACGTCG ((((((((...((((((((+))))))))...)))))))) | 51.7 °C
7 | CGACGTGCTGGATGTGCTG+CAGCACATGCTGCACGTCG ((((((((.(.((((((((+)))))))).).)))))))) | 54.8 °C
8 | CGACGTGCTGGATGTGCTG+CAGCACATGGAGCACGTCG (((((((((..((((((((+))))))))..))))))))) | 53.2 °C
9 | CGACGTGCTGGATGTGCTG+CAGCACATGTGGCACGTCG ((((((((...((((((((+))))))))...)))))))) | 52.6 °C
10 | CGACGTGCTGGATGTGCTG+CAGCACATTACGCACGTCG ((((((((...((((((((+))))))))...)))))))) | 51.1 °C
11 | CGACGTGCTGGATGTGCTG+CAGCACATTATGCACGTCG ((((((((...((((((((+))))))))...)))))))) | 52 °C
12 | CGACGTGCTGGATGTGCTG+CAGCACATTGGGCACGTCG ((((((((...((((((((+))))))))...)))))))) | 52 °C
13 | CGACGTGCTGGATGTGCTG+CAGCACATTTGGCACGTCG ((((((((...((((((((+))))))))...)))))))) | 51.8 °C
14 | CGACGTGCTGTATGTGCTG+CAGCACATAAAGCACGTCG (((((((((.(((((((((+))))))))).))))))))) | 55.5 °C
15 | CGACGTGCTGTATGTGCTG+CAGCACATAATGCACGTCG ((((((((..(((((((((+)))))))))..)))))))) | 51.5 °C
16 | CGACGTGCTGTATGTGCTG+CAGCACATACAGCACGTCG (((((((((((((((((((+))))))))))))))))))) | 62.1 °C
17 | CGACGTGCTGTATGTGCTG+CAGCACATACCGCACGTCG ((((((((.((((((((((+)))))))))).)))))))) | 55.2 °C
18 | CGACGTGCTGTATGTGCTG+CAGCACATACTGCACGTCG ((((((((.((((((((((+)))))))))).)))))))) | 57.8 °C
19 | CGACGTGCTGTATGTGCTG+CAGCACATAGCGCACGTCG ((((((((..(((((((((+)))))))))..)))))))) | 49.9 °C
20 | CGACGTGCTGTATGTGCTG+CAGCACATAGGGCACGTCG ((((((((..(((((((((+)))))))))..)))))))) | 52.2 °C
21 | CGACGTGCTGTATGTGCTG+CAGCACATCATGCACGTCG ((((((((...((((((((+))))))))...)))))))) | 50.9 °C
22 | CGACGTGCTGTATGTGCTG+CAGCACATCCAGCACGTCG ((((((((((.((((((((+)))))))).)))))))))) | 55.5 °C
23 | CGACGTGCTGTATGTGCTG+CAGCACATCCCGCACGTCG ((((((((.(.((((((((+)))))))).).)))))))) | 49.4 °C
24 | CGACGTGCTGTATGTGCTG+CAGCACATCCGGCACGTCG ((((((((.(.((((((((+)))))))).).)))))))) | 52.8 °C

Row | Substance | Tm
25 | CGACGTGCTGTATGTGCTG+CAGCACATCCTGCACGTCG ((((((((.(.((((((((+)))))))).).)))))))) | 51.5 °C
26 | CGACGTGCTGTATGTGCTG+CAGCACATCGGGCACGTCG ((((((((...((((((((+))))))))...)))))))) | 50.6 °C
27 | CGACGTGCTGTATGTGCTG+CAGCACATCGTGCACGTCG ((((((((...((((((((+))))))))...)))))))) | 46.4 °C
28 | CGACGTGCTGTATGTGCTG+CAGCACATCTTGCACGTCG ((((((((...((((((((+))))))))...)))))))) | 49.9 °C
29 | CGACGTGCTGTATGTGCTG+CAGCACATGAAGCACGTCG (((((((((..((((((((+))))))))..))))))))) | 54.9 °C
30 | CGACGTGCTGTATGTGCTG+CAGCACATGCTGCACGTCG ((((((((.(.((((((((+)))))))).).)))))))) | 54.1 °C
31 | CGACGTGCTGTATGTGCTG+CAGCACATGGAGCACGTCG (((((((((..((((((((+))))))))..))))))))) | 55 °C
32 | CGACGTGCTGTATGTGCTG+CAGCACATGGCGCACGTCG ((((((((...((((((((+))))))))...)))))))) | 48.9 °C
33 | CGACGTGCTGTATGTGCTG+CAGCACATGGGGCACGTCG ((((((((...((((((((+))))))))...)))))))) | 51.4 °C
34 | CGACGTGCTGTATGTGCTG+CAGCACATGTCGCACGTCG ((((((((...((((((((+))))))))...)))))))) | 49.3 °C
35 | CGACGTGCTGTATGTGCTG+CAGCACATTACGCACGTCG ((((((((...((((((((+))))))))...)))))))) | 51 °C
36 | CGACGTGCTGTATGTGCTG+CAGCACATTGCGCACGTCG ((((((((...((((((((+))))))))...)))))))) | 47.9 °C
37 | CGACGTGCTGTATGTGCTG+CAGCACATTTGGCACGTCG ((((((((...((((((((+))))))))...)))))))) | 50.4 °C
38 | CGACGTGCTTAATGTGCTG+CAGCACATAATGCACGTCG ((((((((.(.((((((((+)))))))).).)))))))) | 51.5 °C
39 | CGACGTGCTTAATGTGCTG+CAGCACATACGGCACGTCG ((((((((...((((((((+))))))))...)))))))) | 48.3 °C
40 | CGACGTGCTTAATGTGCTG+CAGCACATAGCGCACGTCG ((((((((...((((((((+))))))))...)))))))) | 47.3 °C
41 | CGACGTGCTTAATGTGCTG+CAGCACATAGGGCACGTCG ((((((((...((((((((+))))))))...)))))))) | 50 °C
42 | CGACGTGCTTAATGTGCTG+CAGCACATAGTGCACGTCG ((((((((...((((((((+))))))))...)))))))) | 44 °C
43 | CGACGTGCTTAATGTGCTG+CAGCACATATCGCACGTCG ((((((((...((((((((+))))))))...)))))))) | 48 °C
44 | CGACGTGCTTAATGTGCTG+CAGCACATCAGGCACGTCG ((((((((.(.((((((((+)))))))).).)))))))) | 50.8 °C
45 | CGACGTGCTTAATGTGCTG+CAGCACATCATGCACGTCG ((((((((.(.((((((((+)))))))).).)))))))) | 50.3 °C
46 | CGACGTGCTTAATGTGCTG+CAGCACATCCTGCACGTCG ((((((((...((((((((+))))))))...)))))))) | 48.4 °C
47 | CGACGTGCTTAATGTGCTG+CAGCACATCGCGCACGTCG ((((((((...((((((((+))))))))...)))))))) | 46.7 °C
48 | CGACGTGCTTAATGTGCTG+CAGCACATCGGGCACGTCG ((((((((...((((((((+))))))))...)))))))) | 49.1 °C

Row | Substance | Tm
49 | CGACGTGCTTAATGTGCTG+CAGCACATCTCGCACGTCG ((((((((...((((((((+))))))))...)))))))) | 47.8 °C
50 | CGACGTGCTTAATGTGCTG+CAGCACATGAGGCACGTCG ((((((((.(.((((((((+)))))))).).)))))))) | 52.7 °C
51 | CGACGTGCTTAATGTGCTG+CAGCACATGATGCACGTCG ((((((((.(.((((((((+)))))))).).)))))))) | 53 °C
52 | CGACGTGCTTAATGTGCTG+CAGCACATGCTGCACGTCG ((((((((...((((((((+))))))))...)))))))) | 49.1 °C
53 | CGACGTGCTTAATGTGCTG+CAGCACATGGAGCACGTCG (((((((((..((((((((+))))))))..))))))))) | 54.4 °C
54 | CGACGTGCTTAATGTGCTG+CAGCACATGTAGCACGTCG (((((((((..((((((((+))))))))..))))))))) | 53.4 °C
55 | CGACGTGCTTAATGTGCTG+CAGCACATGTGGCACGTCG ((((((((...((((((((+))))))))...)))))))) | 51.9 °C
56 | CGACGTGCTTAATGTGCTG+CAGCACATTGCGCACGTCG ((((((((..(((((((((+)))))))))..)))))))) | 50.1 °C
57 | CGACGTGCTTAATGTGCTG+CAGCACATTGGGCACGTCG ((((((((..(((((((((+)))))))))..)))))))) | 53.5 °C
58 | CGACGTGCTTCATGTGCTG+CAGCACATAACGCACGTCG ((((((((.(.((((((((+)))))))).).)))))))) | 49.3 °C
59 | CGACGTGCTTCATGTGCTG+CAGCACATAAGGCACGTCG ((((((((.(.((((((((+)))))))).).)))))))) | 50.6 °C
60 | CGACGTGCTTCATGTGCTG+CAGCACATACCGCACGTCG ((((((((...((((((((+))))))))...)))))))) | 47.3 °C
61 | CGACGTGCTTCATGTGCTG+CAGCACATAGCGCACGTCG ((((((((...((((((((+))))))))...)))))))) | 47.4 °C
62 | CGACGTGCTTCATGTGCTG+CAGCACATAGTGCACGTCG ((((((((...((((((((+))))))))...)))))))) | 44.4 °C
63 | CGACGTGCTTCATGTGCTG+CAGCACATATCGCACGTCG ((((((((...((((((((+))))))))...)))))))) | 47.5 °C
64 | CGACGTGCTTCATGTGCTG+CAGCACATCAAGCACGTCG ((((((((((.((((((((+)))))))).)))))))))) | 53.3 °C
65 | CGACGTGCTTCATGTGCTG+CAGCACATCACGCACGTCG ((((((((.(.((((((((+)))))))).).)))))))) | 47.8 °C
66 | CGACGTGCTTCATGTGCTG+CAGCACATCAGGCACGTCG ((((((((.(.((((((((+)))))))).).)))))))) | 49.1 °C
67 | CGACGTGCTTCATGTGCTG+CAGCACATCATGCACGTCG ((((((((.(.((((((((+)))))))).).)))))))) | 49.2 °C
68 | CGACGTGCTTCATGTGCTG+CAGCACATCGCGCACGTCG ((((((((...((((((((+))))))))...)))))))) | 46.2 °C
69 | CGACGTGCTTCATGTGCTG+CAGCACATCGGGCACGTCG ((((((((...((((((((+))))))))...)))))))) | 48.9 °C
70 | CGACGTGCTTCATGTGCTG+CAGCACATGATGCACGTCG ((((((((.((((((((((+)))))))))).)))))))) | 58.8 °C
71 | CGACGTGCTTCATGTGCTG+CAGCACATGCTGCACGTCG ((((((((..(((((((((+)))))))))..)))))))) | 53.1 °C
72 | CGACGTGCTTCATGTGCTG+CAGCACATGTAGCACGTCG (((((((((.(((((((((+))))))))).))))))))) | 57 °C
